One substance from patent US20220403048A1, “BINDING MOLECULES TO ARGINASE II [ARG2]” (Cancer Research Technology Limited, priority 2019, published 2022) can be followed below.

The experiment deals with recombinant human trimeric ARG2 enzyme (construct not given) (human) (UniProt P78540). Nature of the experiment: cell-based or functional assay.
Sequence of recombinant human trimeric ARG2 enzyme (construct not given) (human) (P78540 23-354, form in doubt): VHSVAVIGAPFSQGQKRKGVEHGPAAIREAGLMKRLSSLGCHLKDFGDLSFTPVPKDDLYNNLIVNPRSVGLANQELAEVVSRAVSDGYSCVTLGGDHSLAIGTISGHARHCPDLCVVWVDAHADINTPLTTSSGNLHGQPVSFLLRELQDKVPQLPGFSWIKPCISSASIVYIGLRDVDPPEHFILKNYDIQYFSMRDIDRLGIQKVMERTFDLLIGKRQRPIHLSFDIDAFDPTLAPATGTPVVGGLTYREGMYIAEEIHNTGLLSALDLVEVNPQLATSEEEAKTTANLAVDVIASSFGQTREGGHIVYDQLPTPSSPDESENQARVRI

For NIP228 human IgG1 (antibody), the EC50, In Presence of rhARG2 (T cell proliferation) was more than 2000 nM and the Maximum % Proliferation, In Presence of rhARG2 is 7%.
